# Laboratory results published in patent US20210238281A1 (INSTITUT NATIONAL DE LA SANTE ET DE LA RECHERCHE MEDICALE …, published 2021).
# T1: recombinant human MOG protein (human, UniProt Q16653 30-154, limits assumed)
# T1 construct: Bought recombinant protein; also called HMOG
# T1 sequence (looked up): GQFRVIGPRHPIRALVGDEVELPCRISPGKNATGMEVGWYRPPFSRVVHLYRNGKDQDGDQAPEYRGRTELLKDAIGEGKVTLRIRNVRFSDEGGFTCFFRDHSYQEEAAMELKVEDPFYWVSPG
# T2: recombinant murine MOG protein (murine, UniProt Q61885 29-156, limits assumed)
# T2 construct: Bought recombinant protein; also called MMOG
# T2 sequence (looked up): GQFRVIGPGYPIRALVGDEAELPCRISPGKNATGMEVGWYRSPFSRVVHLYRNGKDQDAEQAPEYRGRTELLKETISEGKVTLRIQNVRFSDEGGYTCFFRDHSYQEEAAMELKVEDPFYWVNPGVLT
# Legend:
# [1] = target: T1, recombinant human MOG protein; test: phage-scFv ELISA on coated recombinant human MOG (0.5 µg/well), anti-M13 HRP, OD450 over BSA background
# Protocol: (§1) The binding characteristics of the scFvs expressed on the surface of the phages isolated during the screening were determined using an ELISA assay using the recombinant MOG protein (R&D system). Along with the selected clones, phage-scFv-8-18C5 is expressed to serve as a positive control for ELISA. Briefly, phage-scFv were produced in the form of clones isolated on a 96-well plate in 800 μl of 2YT/ampicillin/glucose cultures infected with the helper phage M13K07 (as described previously). The phages produced overnight at 26° C. were then recovered in the supernatants after 30 minutes of centrifugation at 3000 g. These supernatants were directly diluted 1/2 in PBS/4% BSA/0.1% Tween 20 and tested on Maxisorp immunoplates previously coated with 0.5 μg of human or murine MOG or PBS (background control (bdf) in BSA)/well and blocked with 4% BSA in PBS. After incubation for 2 hours at 37° C., the wells were washed 3 times with PBS/0.1% Tween-20 and bound phages-scfv were detected with anti-M13 HRP antibody (GE Healthcare). The plate is read at 450 nm (OD) on a plate reader (TECAN). The results are expressed as a ratio: OD on target/OD bdf (OD on an uncoated plate saturated with BSA) and the ratios are compared with that obtained for the positive control.
# [2] = target: T2, recombinant murine MOG protein; test: phage-scFv ELISA on coated recombinant murine MOG (0.5 µg/well), anti-M13 HRP, OD450 over BSA background
# Protocol: as §1
ratio OD on target/OD bdf [1],ratio OD on target/OD bdf [2],Binder
16.4 ratio,8.99 ratio,"anti-MOG MO3J-12 antibody (scFv, V domains shown) VH: EVQLLESGGGLVQPGGSLRLSCAASGFTFSTYWMHWVRQAPGRGLVWVSRINTDGSSTDYADSVKGRFTISRDNAKNTLYLQMNSLRAEDTAVYSCARGGQLVAAANDNWLDPWGQGTLVTVSS VL: AIQLTQSPSSLSASAGDRVTITCRASQSINNYLNWYQQKPGKAPKVLIYGASNLQSGVPSRFSGSGSGTDFTLTISSLQPEDFATYYCQQSYSTPRTFGQGTKVEIK"
6.11 ratio,6.68 ratio,"anti-MOG MO4B-42 antibody (scFv, V domains shown) VH: MAGSLQVDQVQLVQSGAEVKRPGESLKISCEGSGYSFTSSWIGWVRQMPGKGLECMGIIYPGDSDTRYSPSFQGHVTISADKSISTAYLQWSSLRASDTAMYYCARAYHSDYGFDFWGQGTLVTVSS VL: EIVLTQPLSVSESPGKTVTISCTRSSGSIANNFVQWYQRRPGSSPTTVIYENDQRPSGVPDRFSGSIDSSSNSASLTITGLETQDEADYYCQSFNDDVGGGNSGGGTK"
6.57 ratio,4.68 ratio,"anti-MOG MO4H-46 antibody (scFv, V domains shown) VH: QVQLVQSGAEVKKPGASVKVSCKASGYTFTSYAMHWVRQAPGQRLEWMGWINAGNGNAKYSQKFQGRVTLTRDTSASTAYMKLSSLRSEDTAVYYCARGAPTYRYFDLWGRGTLVTVSS VL: QSVLTQPPSVSAAPGQKVTISCSGSSSNIGNNYVAWYQQLPGTAPKLLIYDNNKRPSGIPDRFSGSKSGTSATLGITGLQTGDEADYYCGTSDSSLSAVVFGGGTKLTVL"
14.6 ratio,3.62 ratio,"anti-MOG MO3J-26 antibody (scFv, V domains shown) VH: QVQLVQSGAEVKKPGSSVKVSCKASGGTFSTYTLSWVRQAPGKGLEWMGGFDPEDGETIYAQKFQGRVTMTEDTSTDTAYLELSSLRSDDTAVYYCAADEFWGPGTLVTVSS VL: QSVLTQPPSVSAAPGQTVTISCSGSSSNIGNNYVSWYQQLPGTAPKLLIYDNNKRPSGIPDRFSGSKSGTSATLGITGLQTGDEADYYCGTWDSSLSAVVFGGGTKLTVL"
2.44 ratio,,"anti-MOG MO4H-65 antibody (scFv, V domains shown) VH: EVQLVQPGAEVKKPGASVKVSCKASDYTFTSYGISWVRQAPGQGLEWMGWISAYNGNTYYARKFGRVTMTTDTSTTTAYMELRRLRSEDTAVYYCARSGVDNIDYLFDYWGQGTLVTVSS VL: EIVMTQSPGTMSVSPGESATLSCRASQSVSSNLAWYQQKPGQAPRLLIYGASTRATGLPARFSGSGSRTDFTLTISSLQPEDFATYYCQQTTSFPLTFSGGTKLEIT"
6.23 ratio,5.55 ratio,"anti-MOG MO3B-03 antibody (scFv, V domains shown, T0004 labels followed) VH: QVQLQQSGPGLVRPSQTLSLTCAISGDSVSSSSAAWNWVRSPSRGLEWLGRTYYRSKWYYDYAVSVKNRIAINPDTSKNQFSLHLNSVTPEDTAVYYCATGWLRGHLDYWGQGTLVTVSS VL: AIQMTQSPSSVSASVGDRVTITCRATQSISTYLNWYQQKVGRGPKLLVYAASRLQTGVPSRFSGSGSGTDFTLTISSLQPEDSATYYCQQSYSAPPAFGGGTKVEIK"
2.05 ratio,,"anti-MOG MO3J-72 antibody (scFv, V domains shown) VH: EVQLVESGGGSVKPGGSLRLSCAASGFRFDDYAMHWVRQAPGKGLEWVSGISWNSGAIGYADSVQGRFTISGDNAKNTLYLQMNGLRVEDTAMYYCARDGHGDYPIDYWGQGTLVTVSS VL: QSVLTQPPSVSGAPGQRVSISCTGSGSNIGAGFDVHWYQQVPGTTPKLLIYGNNNRPSGVPDRFSGSTSATSASLAITGLQADDEADYYCQSYDRSLRYVFGTGTKLTVL"
5.82 ratio,9.56 ratio,"anti-MOG MO4B-43 antibody (scFv, V domains shown) VH: DEVQLLESGGGLVPGGSLRLSCEVSGFSFSNHAMHWVRQAPGKALEHLSVLGSDGRSTYYADSVKGRFTISRDISKTTVYLQMGSLRPGDMGVYYCARGLYGDHWDASDLWGQGTMVTVSS VL: EIVMTQSPATLSVSPAERVILSCRASQSVGNNVAWFQQKPGQAPRLLIHGASSRATGIPTRFSGSGSGTELTLTISSLQSEDFAVYYCQQYGSAPITFGQGTRLEIK"
18.4 ratio,5.59 ratio,"anti-MOG MO3J-38 antibody (scFv, V domains shown) VH: QVQLVQSGPEVRKPGASVKVSCRASGYTFTSNDINWVRQAAGQGLEYLGWLHPKSGGTGYAQKFQGRVTMTRDTSISTAYLELSNLTSDDTAVYYCARVSFDEVIDFWGQGTLVTVSS VL: not shown"
5.14 ratio,9.12 ratio,"anti-MOG MO4H-03 antibody (scFv, V domains shown) VH: QVQLVQSGTEVKKPGASVKVSCKVSGYTLTELSMHWVRQAPGKGLEWMGGFDPEDGETIYAQKFQGRVTMTEDTSTDTAYMELSSLRSEDTAVYYCATGATGAFDIWGQGTTVTVSS VL: DIVMTQTPLSSPVTLGQPASISCRSSQSLVDSDGNTYLNWLQQRPGQPPRLLIYKISNRFSGVPDRFSGSGAGTEFTLKISRVEAEDVGVYYCMQATQFPHTFGQGTKLEIK"
2.99 ratio,,"anti-MOG MO4H-55 antibody (scFv, V domains shown) VH: QVQLQQSGPGLVKPSQTLSLTCAISGDSVSSNSAAWNWIRQSPSRGLEWLGRTYYRSKWYNDYAESVKSRMTVTSDTSKNQVSLHLNSVTPEDTAVYYCAREHIAVPGVFDIWGQGTLVTVSS VL: DVVMTQPPSASGTPGQGVTISCSGSSSNIGSNTVNWYQQLPGTAPKLLIYGSGQRPSGVPDRFSGSRSGTSASLAISGLQSEDEADYYCAAWDDSLNGRVFGQGTKVDIT"
15.9 ratio,7.46 ratio,"anti-MOG MO3J-23 antibody (scFv, V domains shown) VH: DQVQLVQSGAEVKPGASVKVSCKASGYTFTSYGISWVRQAPGQGLEWMGWISAYNGNTNYAQKLQGRVTMTTDTSTSTAYMELRSLRSDDTAVYYCARDPVGSLRPYYMDVWGEGTTVTVSS VL: DIVMTQSPSTLSASVGDRVTITCRASQSISTWLAWYQQKPGKAPKLLIYAASSLQSGVPSRFSGSGSGTDFTLTISSLQPEDFATYYCQQSYSTPRTFGQGTKVEIK"
9.36 ratio,9.78 ratio,"anti-MOG MO4H-04 antibody (scFv, V domains shown) VH: EVQLVQSGAEVKKPVASVKVSCKASGYTFTSYGISWVRQAPGQGLEWMGWISAYNGNTNYAQKLQGRVTMTTDTSTSTAYMELRSLRSDDTAVYYCARNMGCSSTSCFVSWFDPWGQGTLVTVSS VL: QSALTQPPSASGSPGQSVTISCTGTHSDVGSFDSVSWYQQHPDKAPKLIIYDVNKRPAGVPHRFSGSKSGNTASLTVSGLQSEDEADYYCNSYAGVDNFVFGTGTKVTVL"
16.4 ratio,7.53 ratio,"anti-MOG MO3J-05 antibody (scFv, V domains shown) VH: EVQLVQSGAEVKKPGASVKVSCKASGYTFTSYGISWVRQAPGQGLEWMGWISAYNGNTNYAQKLQGRVTMTTDTSTSTAYMELRSLRSDDTAVYYCARNMGCSSTSCFVSWFDPWGQGTLVTVSS VL: not shown"
11.7 ratio,5.66 ratio,"anti-MOG MO3J-19 antibody (scFv, V domains shown) VH: EVQLVQSGAEVKKPGASVKVSCKASGYTFTSYGISWVRQAPGQGLEWMGWISAYNGNTNYAQKLQGRVTMTTDTSTSTAYMELRSLRSDDTAVYYCARNMGCSSTSCFVSWFDPWGQGTLVTVSS VL: QSVLTQPPSASGTPGQRVTISCSGSTSNIGSQIVNWYQQLPGTAPRLIIYNDNERPSGVSDRFSGSKSDTSASLAISGLQSEDEADYYCAAWDDSLNGYVFGTGTKVTVL"
12.9 ratio,6.66 ratio,"anti-MOG MO3J-37 antibody (scFv, V domains shown) VH: EVQLVESGGGLVQPGRSLRLSCAASGFTFDDYAMHWVRQAPGKGLEWVSGISWNSGSIGYADSVKGRFTISRDNAKNSLYLQMNSLRAEDTALYYCAKDMRAVAGTEGAFDIWGQGTMVTVSS VL: QSVVTQPPSMSAAPGQKVTISCSGSSSNIGNNYVSWYQQLPGTAPKLLIYENNKRPSGISDRFSGSKSGTSATLGITGLQTGDEADYYCATGDSGMTLVFGGGTKLTVL"
3.46 ratio,,"anti-MOG MO4H-51 antibody (scFv, V domains shown) VH: QVQLVQSGAEVKKPGASVKVSCKASGYTFTSYGMHWVRQAPGQRLEWMGWINPGNGNTKYSQKFQGRVTITRDTSASTAYMDLSSLRSEDTAVYYCARLPRIGGWFDPWGQGTLVTVSS VL: not shown"
13.8 ratio,22.1 ratio,"anti-MOG MO3F-02 antibody (scFv, V domains shown) VH: QVQLQQSGPGLVKPSQTLSLTCAISGDSVSSNSAAWNWIRKSPSRGLEWLGRTYYRSKWYNDYAVSVKSRITINPDTSKNQFSLQLSSVTPEDTAVYYCARASAGTFGYWGQGTLVTVSS VL: DIVMTQSPSSLSASVGDRVTMTCRASQTINTYLNWYQQKPGKAPKLLIYAASTLQSGVPSRFSGSGSGTDFSLTISSLQPEDFATYYCQHGYNNPPFTFGPGTKVDIK"
